From publication PMC12828377, “HDAC6-mediated PFKL deacetylation enhances aerobic glycolysis and promotes VSMC proliferation” (The Journal of Biological Chemistry, 2025)
Each block holds one molecule with its values, some of them ahead of it.

Tests used:
Assay in all cases: cross-linking; VSMC lysate (700 ug protein in NP40 buffer) fixed with 0.1% glutaraldehyde on ice for 10 min, then Western blot; cells with or without PDGF-BB (10 ng/ml, different durations), TSA or NAM, or transduced with Ad-PFKL WT/K563Q/K563R
HA-PFKL WT = HA-PFKL WT (UniProt P17858)
HA-PFKL K563R = HA-PFKL K563R (UniProt P17858)
[1] = target: the molecule itself

stoichiometry N (HA-PFKL WT): 4
Molecule: HA-PFKL WT (from UniProt P17858 1-780) (enzyme)

stoichiometry N (HA-PFKL K563R): 4
Molecule: HA-PFKL K563R (from UniProt P17858 1-780) (enzyme)

B1: phosphofructokinase, liver type (PFKL) (enzyme, rat (endogenous in primary rat VSMCs), UniProt P30835 1-780, looked up)
chain: MATVDLEKLRMSGAGKAIGVLTSGGDAQGMNAAVRAVTRMGIYVGAKVFLIYEGYEGLVEGGENIKPANWLSVSNIIQLGGTIIGSARCKAFTTREGRLAAAYNLLQHGITNLCVIGGDGSLTGANIFRNEWGSLLEELVKEGKISESTAQNYAHLSIAGLVGSIDNDFCGTDMTIGTDSALHRIMEVIDAITTTAQSHQRTFVLEVMGRHCGYLALVSALASGADWLFIPEAPPEDGWENFMCERLGETRSRGSRLNIIIIAEGAIDRHGKPISSSYVKDLVVQRLGFDTRVTVLGHVQRGGTPSAFDRVLSSKMGMEAVMALLEATPDTPACVVSLSGNQSVRLPLMECVQVTKDVQKAMDEKRFDEAIQLRGRSFENNWKIYKLLAHQKVSKEKSNFSLAILNVGAPAAGMNAAVRSAVRTGISEGHTVYVVHDGFEGLAKGQVQEVGWHDVAGWLGRGGSMLGTKRTLPKPHLEAIVENLRTYNIHALLVIGGFEAYEGVLQLVEARGRYEELCIVMCVIPATISNNVPGTDFSLGSDTAVNAAMESCDRIKQSASGTKRRVFIVETMGGYCGYLATVTGIAVGADAAYVFEDPFNIHDLKANVEHMTEKMKTDIQRGLVLRNEKCHEHYTTEFLYNLYSSEGRGVFDCRTNVLGHLQQGGAPTPFDRNYGTKLGVKAMLWMSEKLRDVYRKGRVFANAPDSACVIGLRKKVVAFSSVTELKKETDFEHRMPREQWWLNLRLMLKMLAHYRISMADYVSGELEHVTRRTLSIDKGF
notes: phosphofructokinase, liver type (PFKL), endogenous in primary VSMCs from the thoracic aorta of Sprague-Dawley rats; Acetylation level of the endogenous protein changes with PDGF-BB, TSA or NAM; sites on the endogenous protein were not mapped directly; also called endogenous PFKL; PFK1 liver isoform; source: endogenous, primary rat VSMC lysate (NP-40 buffer) or fixed VSMCs
stoichiometry N [1]: 4
